The values that follow come from publication PMC3089606, “The E. coli Anti-Sigma Factor Rsd: Studies on the Specificity and Regulation of Its Expression” (PLoS ONE, 2011).

Series [1] has as its system RNA polymerase holoenzyme Esigma38 (Escherichia coli). The experiment in a line: EMSA. Particulars: 1 uM Rsd; binding buffer, salt, pH and temperature not given in the material; heparin competitor in NAP footprints. (A gel shift assay detects complexes by their altered migration in electrophoresis.)
Series [2] has as its target T1, RNA polymerase sigma factor σ^70 (E. coli, UniProt P00579 1-613).
T1 construct: RNA polymerase sigma factor σ^70 (RpoD), E. coli; also called free σ^70; sigma D
The experiment in a line: cross-linking; 3 µg Rsd with 3 µg σ^70, σ^38 or Rsd (or each protein alone), 30 minutes in 15 µl 50 mM HEPES pH 7.4, 5% glycerol, 0.1 mM EDTA, 0.1 mM DTT; 0.02% glutaraldehyde, room temperature 30 minutes; SDS gel, Coomassie staining. Conditions: both partners purified.

Series [3] concerns the molecule itself. Described as above.
In series [4] the target is T1, RNA polymerase sigma factor σ^70. The experiment in a line: pull-down; biotinylated Rsd incubated with the protein of interest (molar ratios 1:1 or 1:3) for 1 hour in TGED buffer on ice, held on Streptavidine MicroBeads column, four washes, elution with SDS buffer; SDS gel, Coomassie and silver staining. Conditions: both partners purified.
Series [5] concerns the target T2, RNA polymerase sigma factor σ^38 (E. coli, UniProt P13445 1-330).
T2 construct: stationary phase-specific sigma factor σ^38 (RpoS), E. coli; also called σ^s; RpoS
Described as above. Conditions: both partners purified.

T1 sequence (P00579 whole entry): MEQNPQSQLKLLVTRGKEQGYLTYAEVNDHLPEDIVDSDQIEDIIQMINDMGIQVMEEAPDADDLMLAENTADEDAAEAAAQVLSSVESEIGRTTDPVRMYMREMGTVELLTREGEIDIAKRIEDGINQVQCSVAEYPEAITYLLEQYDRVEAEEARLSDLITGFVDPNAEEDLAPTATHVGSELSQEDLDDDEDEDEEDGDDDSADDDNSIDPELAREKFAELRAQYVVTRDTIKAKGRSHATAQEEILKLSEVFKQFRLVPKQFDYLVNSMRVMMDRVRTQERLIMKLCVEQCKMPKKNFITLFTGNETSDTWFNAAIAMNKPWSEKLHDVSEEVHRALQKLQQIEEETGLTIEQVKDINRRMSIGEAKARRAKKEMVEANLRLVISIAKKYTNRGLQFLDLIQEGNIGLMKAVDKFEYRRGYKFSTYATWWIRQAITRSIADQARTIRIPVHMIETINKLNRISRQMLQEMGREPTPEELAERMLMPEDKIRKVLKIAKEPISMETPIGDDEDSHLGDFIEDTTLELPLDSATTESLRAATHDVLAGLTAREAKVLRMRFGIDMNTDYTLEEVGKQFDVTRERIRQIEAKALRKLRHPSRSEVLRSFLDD
T2 sequence (P13445 whole entry): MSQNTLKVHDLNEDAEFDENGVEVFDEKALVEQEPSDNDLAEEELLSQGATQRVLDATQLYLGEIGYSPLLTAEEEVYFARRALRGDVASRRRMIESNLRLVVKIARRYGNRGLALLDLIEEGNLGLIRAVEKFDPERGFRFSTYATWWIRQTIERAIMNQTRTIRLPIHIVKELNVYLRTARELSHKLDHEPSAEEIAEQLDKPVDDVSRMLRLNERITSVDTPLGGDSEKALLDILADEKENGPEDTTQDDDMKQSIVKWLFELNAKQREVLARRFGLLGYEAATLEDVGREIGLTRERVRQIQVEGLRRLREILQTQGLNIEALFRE

Turning to fic promoter fragment, the binding signal (% of complex remaining) in series [1] is 50.

B1: Rsd (regulator of sigma D), native protein (natural protein, E. coli, UniProt P0AFX4 1-158, looked up)
chain: MLNQLDNLTERVRGSNKLVDRWLHVRKHLLVAYYNLVGIKPGKESYMRLNEKALDDFCQSLVDYLSAGHFSIYERILHKLEGNGQLARAAKIWPQLEANTQQIMDYYDSSLETAIDHDNYLEFQQVLSDIGEALEARFVLEDKLILLVLDAARVKHPA
notes: Rsd (regulator of sigma D), E. coli; No tag is mentioned; also called native Rsd; anti-sigma factor Rsd; source: E. coli BL21DE3pLysS/pUC18-Rsd, purified (DEAE-Sephadex A25, P11-phosphocellulose, NH4SO4 precipitation)
A word on the stoichiometry N: it is a count of units in the complex or per binding partner. Regarding B1, the binding result in series [2] is recorded as “binds”. For the same molecule, the “stoichiometry N” value in series [3] is 2.

B2: Biotinylated Rsd (natural protein, E. coli, UniProt P0AFX4 1-158, looked up)
chain: B1 chain
modifications: biotin (9 fold excess of Biotinyl-N-hydroxy-succinimide; modified residues not stated)
notes: Rsd (regulator of sigma D), E. coli; Held on Streptavidine MicroBeads through the biotin; also called Biotinylated-Rsd protein; immobilized Rsd; source: E. coli BL21DE3pLysS/pUC18-Rsd, purified, then biotinylated with Biotinyl-N-hydroxy-succinimide
On to B2, for which the binding result in series [4] and in series [5] was “binds” each time.
